US20250034277A1 (SUZHOU ALPHAMAB, published 2025)

Experiments:
[1] = target: FXI in rat plasma (rat); test: cell-based or functional assay
[2] = target: FXI in monkey plasma (monkey); test: cell-based or functional assay
[3] = target: FXI in rabbit plasma (rabbit); test: cell-based or functional assay
[4] = target: FXI in cynomolgus plasma (cynomolgus); test: cell-based or functional assay
[5] = target: T1, FXI in standard human plasma (human, UniProt P03951 19-625); test: cell-based or functional assay
[6] = target: T1, FXI in standard human plasma; test: cell-based or functional assay; remark: listed apart in the source
[7] = target: FXI in rabbit plasma (rabbit); test: cell-based or functional assay; remark: listed apart in the source
[8] = target: T2, hFXI-CHis protein (human, UniProt P03951 19-625); test: BLI, antibody on Protein A biosensor, hFXI-Chis 50-3.125 nM, 1:1 model
T2 construct: FXI is said in the background to be a dimer; nothing is said of the construct; also called human FXI; human FXI factor protein; not shown: C-terminal His tag (CHis)

B1: reference antibody 14E11 (antibody, human IgG1, kappa, V domains shown)
VH: QVQLEESGPGLVAPSQSLSITCTVSGFSLTGYGIYWVRQPPGKGLEWLGMIWGDGRTDYNSALKSRLSISKDNSKSQVFLKMNSLQTDDTARYYCARDYYGSKDYWGQGTTLTVSS
VL: DIVMTQSHKFMSTSVGDRVSITCKASQDVSTAVAWYQQKPGQSPKLLIYLTSYRNTGVPDRFTGSGSGTDFTFTISSVQAEDLAVYYCQQHYKTPYSFGGGTKLERLR
APTT ratio in rat plasma at 0.5 µg/mL [1]: 1.08 ratio
APTT ratio in rat plasma at 1 µg/mL [1]: 1.04 ratio
APTT ratio in rat plasma at 2 µg/mL [1]: 1.13 ratio
APTT ratio in rat plasma at 5 µg/mL [1]: 1.37 ratio
APTT ratio in rat plasma at 10 µg/mL [1]: 1.34 ratio
APTT ratio in rat plasma at 30 µg/mL [1]: 1.37 ratio
whole blood APTT in monkey plasma at 0.1 µg/mL [2]: 20.9
whole blood APTT in monkey plasma at 0.5 µg/mL [2]: 22.4
whole blood APTT in monkey plasma at 1 µg/mL [2]: 24.7
whole blood APTT in monkey plasma at 2 µg/mL [2]: 39.6
whole blood APTT in monkey plasma at 5 µg/mL [2]: 51.4
whole blood APTT in monkey plasma at 10 µg/mL [2]: 52.8
APTT ratio in rabbit plasma at 0.1 µg/mL [3]: 0.85 ratio
APTT ratio in rabbit plasma at 0.5 µg/mL [3]: 0.88 ratio
APTT ratio in rabbit plasma at 1 µg/mL [3]: 0.93 ratio
APTT ratio in rabbit plasma at 2 µg/mL [3]: 1.17 ratio
APTT ratio in rabbit plasma at 5 µg/mL [3]: 1.88 ratio
APTT ratio in rabbit plasma at 10 µg/mL [3]: 2.05 ratio
APTT ratio in cynomolgus plasma at 0.1 µg/mL [4]: 1 ratio
APTT ratio in cynomolgus plasma at 0.5 µg/mL [4]: 1.07 ratio
APTT ratio in cynomolgus plasma at 1 µg/mL [4]: 1.18 ratio
APTT ratio in cynomolgus plasma at 2 µg/mL [4]: 1.89 ratio
APTT ratio in cynomolgus plasma at 5 µg/mL [4]: 2.46 ratio
APTT ratio in cynomolgus plasma at 10 µg/mL [4]: 2.53 ratio
APTT ratio in standard human plasma at 0.1 µg/mL [5]: 1 ratio
APTT ratio in standard human plasma at 0.5 µg/mL [5]: 1.09 ratio
APTT ratio in standard human plasma at 1 µg/mL [5]: 1.23 ratio
APTT ratio in standard human plasma at 2 µg/mL [5]: 1.67 ratio
APTT ratio in standard human plasma at 5 µg/mL [5]: 2.05 ratio
APTT ratio in standard human plasma at 10 µg/mL [5]: 2.09 ratio
whole blood APTT in standard human plasma at 0.1 µg/mL [6]: 22.9
whole blood APTT in standard human plasma at 0.5 µg/mL [6]: 25.1
whole blood APTT in standard human plasma at 1 µg/mL [6]: 28.3
whole blood APTT in standard human plasma at 2 µg/mL [6]: 38.3
whole blood APTT in standard human plasma at 5 µg/mL [6]: 47.2
whole blood APTT in standard human plasma at 10 µg/mL [6]: 48.1
whole blood APTT in rabbit plasma at 0.1 µg/mL [7]: 15.6
whole blood APTT in rabbit plasma at 0.5 µg/mL [7]: 16.1
whole blood APTT in rabbit plasma at 1 µg/mL [7]: 17.2
whole blood APTT in rabbit plasma at 2 µg/mL [7]: 21.5
whole blood APTT in rabbit plasma at 5 µg/mL [7]: 34.5
whole blood APTT in rabbit plasma at 10 µg/mL [7]: 37.8

B2: reference antibody BAY1213790 (antibody, human IgG1, kappa, V domains shown)
VH: EVQLLESGGGLVQPGGSLRLSCAASGFTFSQYGMDWVRQAPGKGLEWVSGIGPSGGSTVYADSVKGRFTISRDNSKNTLYLQMNSLRAEDTAVYYCTRGGPYYYYGMDVWGQGTTVTVSS
VL: DIQMTQSPSSLSASVGDRVTITCQASQDISNYLNWYQQKPGKAPKLLIYDASNLETGVPSRFSGSGSGTDFTFTISSLQPEDIATYYCQQADSFPVTFGGGTKVEIKR
notes: Anti-FXI antibody developed by Bayer
whole blood APTT in monkey plasma at 0.1 µg/mL [2]: 21
whole blood APTT in monkey plasma at 0.5 µg/mL [2]: 23.1
whole blood APTT in monkey plasma at 1 µg/mL [2]: 25.6
whole blood APTT in monkey plasma at 2 µg/mL [2]: 30.2
whole blood APTT in monkey plasma at 5 µg/mL [2]: 37.1
whole blood APTT in monkey plasma at 10 µg/mL [2]: 42.5
Kd [8]: 4.12 nM
APTT ratio in standard human plasma at 0.1 µg/mL [5]: 1 ratio
APTT ratio in standard human plasma at 0.5 µg/mL [5]: 1.14 ratio
APTT ratio in standard human plasma at 1 µg/mL [5]: 1.27 ratio
APTT ratio in standard human plasma at 2 µg/mL [5]: 1.58 ratio
APTT ratio in standard human plasma at 5 µg/mL [5]: 1.98 ratio
APTT ratio in standard human plasma at 10 µg/mL [5]: 2.22 ratio
whole blood APTT in standard human plasma at 0.1 µg/mL [6]: 22.9
whole blood APTT in standard human plasma at 0.5 µg/mL [6]: 26.3
whole blood APTT in standard human plasma at 1 µg/mL [6]: 29.2
whole blood APTT in standard human plasma at 2 µg/mL [6]: 36.4
whole blood APTT in standard human plasma at 5 µg/mL [6]: 45.6
whole blood APTT in standard human plasma at 10 µg/mL [6]: 51.1
whole blood APTT in rabbit plasma at 0.1 µg/mL [7]: 15.3
whole blood APTT in rabbit plasma at 0.5 µg/mL [7]: 16
whole blood APTT in rabbit plasma at 1 µg/mL [7]: 16.4
whole blood APTT in rabbit plasma at 2 µg/mL [7]: 18.1
whole blood APTT in rabbit plasma at 5 µg/mL [7]: 24.1
whole blood APTT in rabbit plasma at 10 µg/mL [7]: 28.8
